Assay results reported in patent US20120230990A1 (MERCK SERONO, published 2012).
Positions count from the first letter of the chain named. In names and notes the source's numbering stands. Several values for one entry are separate records, joined by “and”; a condition that tells them apart may be missing. Equal entries are not always repeated.

T1: human IL-22RA on cells (HepG2 hepatoma cells, normal human keratinocytes, BaF3 cells transfected with human … (human, UniProt Q8N6P7 16-574))
T1 sequence: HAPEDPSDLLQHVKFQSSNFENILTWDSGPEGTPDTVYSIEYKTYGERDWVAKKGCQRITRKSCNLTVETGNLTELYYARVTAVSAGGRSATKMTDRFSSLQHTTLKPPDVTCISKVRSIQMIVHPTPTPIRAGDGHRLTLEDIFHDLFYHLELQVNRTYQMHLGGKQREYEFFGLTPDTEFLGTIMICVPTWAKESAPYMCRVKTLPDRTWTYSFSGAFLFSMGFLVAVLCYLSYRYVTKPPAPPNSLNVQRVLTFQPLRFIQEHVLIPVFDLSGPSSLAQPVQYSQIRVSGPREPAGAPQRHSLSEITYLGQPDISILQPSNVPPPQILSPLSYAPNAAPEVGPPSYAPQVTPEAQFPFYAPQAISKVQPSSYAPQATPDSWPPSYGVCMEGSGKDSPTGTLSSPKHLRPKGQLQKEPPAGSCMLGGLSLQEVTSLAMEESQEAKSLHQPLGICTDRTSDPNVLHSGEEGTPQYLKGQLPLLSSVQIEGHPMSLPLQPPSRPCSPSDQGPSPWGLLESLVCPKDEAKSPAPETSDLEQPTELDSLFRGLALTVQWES

T2: murine IL-22RA on cells (HEPA1-6 hepatoma cells, BaF3 cells transfected with murine IL-22RA and IL-10RB) (murine, UniProt Q80XZ4 16-581)
T2 sequence (looked up): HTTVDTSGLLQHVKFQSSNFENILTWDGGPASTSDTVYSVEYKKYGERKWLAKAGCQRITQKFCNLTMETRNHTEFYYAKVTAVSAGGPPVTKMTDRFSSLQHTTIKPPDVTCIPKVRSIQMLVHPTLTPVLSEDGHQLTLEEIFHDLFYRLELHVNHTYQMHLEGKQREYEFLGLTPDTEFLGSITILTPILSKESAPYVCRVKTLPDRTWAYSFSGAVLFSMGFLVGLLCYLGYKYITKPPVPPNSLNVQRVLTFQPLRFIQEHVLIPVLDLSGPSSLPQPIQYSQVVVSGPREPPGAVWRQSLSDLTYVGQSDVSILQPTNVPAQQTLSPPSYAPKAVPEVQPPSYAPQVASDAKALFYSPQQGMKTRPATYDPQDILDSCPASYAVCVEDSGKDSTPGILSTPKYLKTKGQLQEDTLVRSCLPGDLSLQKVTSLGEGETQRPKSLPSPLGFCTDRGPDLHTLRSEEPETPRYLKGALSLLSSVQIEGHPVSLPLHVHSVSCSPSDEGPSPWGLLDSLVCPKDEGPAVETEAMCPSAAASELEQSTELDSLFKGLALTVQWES

B1: mouse 280.46.3.4 (mouse anti-human IL-22RA monoclonal antibody from hybridoma 280.46.3.4, ATCC PTA-6284) (antibody, V domains shown)
VH: EVQLQQSGPELVRPGTSVKISCKASGYSLTADYMNWVKQSPEESLEWIGEINPSTGTTTYNQKFEAKATLTVDQSSNTAYLQLTSLTSEDSAVYYCARFDAYFDYWGQGTTVTVSS
VL: DIVMTQSPSSLAVSVGEKVTMSCKSSQSLLYSSNQKNCLAWYQQKPGQSPKLLIYWASSRESGVPDRFTGSGSGTDFTLTISSVKTEDLAVYYCQQYFSYPFTFGSGTKLEIKR
B2: murine IL-22RA (recombinant, form not stated) (receptor, UniProt Q80XZ4 16-230, looked up)
chain: HTTVDTSGLLQHVKFQSSNFENILTWDGGPASTSDTVYSVEYKKYGERKWLAKAGCQRITQKFCNLTMETRNHTEFYYAKVTAVSAGGPPVTKMTDRFSSLQHTTIKPPDVTCIPKVRSIQMLVHPTLTPVLSEDGHQLTLEEIFHDLFYRLELHVNHTYQMHLEGKQREYEFLGLTPDTEFLGSITILTPILSKESAPYVCRVKTLPDRTWAYS
notes: also called mIL-22RA; mouse IL-22 receptor alpha
B3: humanized 280.46.3.4 antibody comprising 280.VH3-66-1 paired with 280.VK4-1-S, human IgG1/kappa (antibody, V domains shown)
VH: EVQLVESGGGLVQPGGSLRLSCAASGYSLTADYMNWVRQAPGKGLEWIGEINPSTGTTTYNQKFEARATLTVDQSKNTAYLQMNSLRAEDTAVYYCARFDAYFDYWGQGTLVTVSS
VL: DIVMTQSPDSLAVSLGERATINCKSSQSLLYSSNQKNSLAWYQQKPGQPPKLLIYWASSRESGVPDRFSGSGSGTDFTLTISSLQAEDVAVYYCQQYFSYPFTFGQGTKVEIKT
B4: humanized 280.46.3.4 antibody comprising 280.VH3-66-4 paired with 280.VK4-1-T, human IgG1/kappa (antibody, V domains shown)
VH: B3 VH with E65K, A66G, T71S
VL: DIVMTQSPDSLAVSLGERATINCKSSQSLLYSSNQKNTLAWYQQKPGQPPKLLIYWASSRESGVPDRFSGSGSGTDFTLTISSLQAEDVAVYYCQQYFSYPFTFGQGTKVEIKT
B5: humanized 280.46.3.4 antibody comprising 280.VH3-66-18 paired with 280.VK4-1-T, human IgG1/kappa (antibody, V domains shown)
VH: B3 VH with D32E, E65K, A66G, T71S
VL: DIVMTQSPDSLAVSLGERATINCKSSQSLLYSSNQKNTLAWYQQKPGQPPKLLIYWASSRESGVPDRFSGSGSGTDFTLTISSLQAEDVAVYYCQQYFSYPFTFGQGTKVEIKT
B6: Fab of D96E mutant: 280.VH3-66-4 with Asp to Glu at position 96, paired with 280.VK4-1-T (Fab, name in Kabat numbering, V domains shown)
VH: B3 VH with E65K, A66G, T71S, D100E
VL: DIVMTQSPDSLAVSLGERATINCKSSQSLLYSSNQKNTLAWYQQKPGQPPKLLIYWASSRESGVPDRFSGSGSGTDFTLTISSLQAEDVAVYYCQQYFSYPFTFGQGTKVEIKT
notes: NiNTA-purified Fab, which implies a His tag that is not described
B7: Fab of D32E mutant: 280.VH3-66-18 paired with 280.VK4-1-T (Fab, V domains shown)
VH: B3 VH with D32E, E65K, A66G, T71S
VL: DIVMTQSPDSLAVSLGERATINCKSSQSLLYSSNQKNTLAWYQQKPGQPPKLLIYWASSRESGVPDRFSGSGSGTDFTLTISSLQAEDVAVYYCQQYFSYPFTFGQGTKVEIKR
notes: NiNTA-purified Fab, which implies a His tag that is not described; also called version 18
B8: human IL-22RA (recombinant, form not stated) (receptor)
chain: HAPEDPSDLLQHVKFQSSNFENILTWDSGPEGTPDTVYSIEYKTYGERDWVAKKGCQRITRKSCNLTVETGNLTELYYARVTAVSAGGRSATKMTDRFSSLQHTTLKPPDVTCISKVRSIQMIVHPTPTPIRAGDGHRLTLEDIFHDLFYHLELQVNRTYQMHLGGKQREYEFFGLTPDTEFLGTIMICVPTWAKESAPYMCRVKTLPDRTWT
notes: a soluble ECD is likely; also called hIL-22RA; human interleukin 22 receptor alpha

How the values were obtained:
[1] = target: T1, human IL-22RA on cells (HepG2 hepatoma …); test: cell-based or functional assay
[2] = target: T2, murine IL-22RA on cells (HEPA1-6 …); test: cell-based or functional assay
[3] = target: T3, 280.346.TSY (humanized anti-human IL-22RA antibody comprising 280.VH3-66-46 paired with 280.VK4-1-TSY, human …); test: competitive ELISA: soluble competitor against coated human IL-22RA-ECD for biotinylated 280-346-TSY; soluble murine IL-22RA as competitor
T3 construct: Produced in CHO cells; also called 280.VH3-66-46/VK4-1-TSY; 280.VH3-66.46 paired with 280.IGKV4-1-TSY
T3 sequence (VL, as listed by the source): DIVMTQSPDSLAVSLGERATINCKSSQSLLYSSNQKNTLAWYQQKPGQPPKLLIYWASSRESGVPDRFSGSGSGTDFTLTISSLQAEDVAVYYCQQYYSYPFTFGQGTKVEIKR
Experimental: (§1) FIG. 23 reports the results of a competitive ELISA done to measure the specificity of 280.346.TSY to human IL-22RA. Microtiter plates were coated with human IL-22RA-ECD (i.e. IL-22RA-Extra Cellular Domain). Biotinylated 280-346-TSY antibody was added to the plate in the presence of competitors: human interleukin 22 receptor alpha (hIL-22RA), human IL-22 binding protein (hIL-22BP), murine IL-22 receptor alpha (mIL-22RA), human IL-10 receptor alpha (hIL-10R) and human IL-20 receptor alpha (hIL-20R).
(§2) Specificity and binding affinity of 280.346.TSY was determined using a competitive ELISA. Microtiter plates were coated with human IL-22RA-ECD (i.e. IL-22RA-Extra Cellular Domain). Biotinylated 280-346-TSY antibody was added to the plate in the presence of competitors: human interleukin 22 receptor alpha (hIL-22RA), human IL-22 binding protein (hIL-22BP), mouse IL-22 receptor alpha (mIL-22RA), human IL-10 receptor alpha (hIL-10R) and human IL-20 receptor alpha (hIL-20R).

[4] = target: B8; test: Biacore, NiNTA-purified Fab
[5] = target: T3, 280.346.TSY (humanized anti-human …); test: competitive ELISA: soluble competitor against coated human IL-22RA-ECD for biotinylated 280-346-TSY; soluble human IL-22RA as competitor
Experimental: as §1, §2

Binder: B1
IC50, STAT3 phosphorylation assay in human HepG2 hepatoma cells stimulated with recombinant human IL-22 [1]: 0.333 nM and 0.37 nM and 0.266 nM | IC50, STAT3 phosphorylation assay in normal human keratinocytes stimulated with recombinant human IL-22 [1]: 0.542 nM | IC50, proliferation assay in BaF3 cells transfected with human IL-22RA and IL-10RB, cultured with recombinant human IL-22 [1]: 0.545 nM and 0.587 nM | IC50, proliferation assay in BaF3 cells transfected with murine IL-22RA and IL-10RB, cultured with recombinant murine IL-22 [2]: 0.849 nM and 1.47 nM

Binder: B2
IC50 [3]: 0.149 nM

Binder: B3
IC50, STAT3 phosphorylation assay in human HepG2 hepatoma cells stimulated with recombinant human IL-22 [1]: 0.258 nM | IC50, proliferation assay in BaF3 cells transfected with human IL-22RA and IL-10RB, cultured with recombinant human IL-22 [1]: 0.34 nM | fold potency against the mouse parental antibody 280.46.3.4, STAT3 phosphorylation assay in HepG2 cells [1]: 1.4 fold | fold potency against the mouse parental antibody 280.46.3.4, proliferation of human IL-22 receptor transfected BaF3 cells [1]: 1.7 fold | IC50, proliferation assay in BaF3 cells transfected with murine IL-22RA and IL-10RB, cultured with recombinant murine IL-22 [2]: 0.693 nM | fold potency against the mouse parental antibody 280.46.3.4, proliferation of murine IL-22 receptor transfected BaF3 cells [2]: 2.1 fold

Binder: B4
IC50, STAT3 phosphorylation assay in human HepG2 hepatoma cells stimulated with recombinant human IL-22 [1]: 0.183 nM | IC50, proliferation of human IL-22 receptor (IL-22RA and IL-10RB) transfected BaF3 cells [1]: 0.334 nM | fold potency against the mouse parental antibody 280.46.3.4, STAT3 phosphorylation assay in HepG2 cells [1]: 1.8 fold | fold potency against the mouse parental antibody 280.46.3.4, proliferation of human IL-22 receptor transfected BaF3 cells [1]: 1.75 fold | IC50, proliferation of murine IL-22 receptor (IL-22RA and IL-10RB) transfected BaF3 cells [2]: 0.687 nM | fold potency against the mouse parental antibody 280.46.3.4, proliferation of murine IL-22 receptor transfected BaF3 cells [2]: 2.1 fold

Binder: B5
IC50, STAT3 phosphorylation assay in human HepG2 hepatoma cells [1]: 0.133 nM | fold potency against the mouse parental antibody 280.46.3.4, STAT3 phosphorylation assay in HepG2 cells [1]: ~3 fold

Binder: B6
fold reduction of affinity against parental unmutated D32 (280.VH3-66-4) [4]: ~500 fold

Binder: B7
fold decrease of the off rate against parental unmutated D32 (280.VH3-66-4) [4]: ~5 fold | fold increase of the on rate against parental unmutated D32 (280.VH3-66-4) [4]: ~2 fold

Binder: B8
IC50 [5]: 0.0182 nM
